The record followed here is US20220135638A1 (Takeda / Millennium, published 2022).

The target of assay [1] is T1, full-length human GLP-1R (GenBank NM_002062) with an N-terminal FLAG tag on HEK-293T cells (human), P43220.
T1 chain: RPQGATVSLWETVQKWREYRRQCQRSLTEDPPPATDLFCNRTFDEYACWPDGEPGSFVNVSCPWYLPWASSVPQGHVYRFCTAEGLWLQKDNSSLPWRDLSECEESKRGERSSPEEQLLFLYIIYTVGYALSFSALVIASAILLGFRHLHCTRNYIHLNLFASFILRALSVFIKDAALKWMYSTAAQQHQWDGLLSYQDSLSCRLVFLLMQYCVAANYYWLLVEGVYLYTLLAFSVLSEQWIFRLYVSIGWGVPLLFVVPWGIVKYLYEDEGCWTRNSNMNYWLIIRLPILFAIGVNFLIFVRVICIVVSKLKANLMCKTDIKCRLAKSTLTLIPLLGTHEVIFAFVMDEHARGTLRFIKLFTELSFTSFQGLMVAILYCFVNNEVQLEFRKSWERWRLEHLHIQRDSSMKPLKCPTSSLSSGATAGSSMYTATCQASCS
The experiment in a line: cell-based or functional assay.

Assay [2] has as its target T2, full-length human GIPR (GenBank NM_000164) with an N-terminal FLAG tag on HEK-293T cells (human), P48546.
T2 chain: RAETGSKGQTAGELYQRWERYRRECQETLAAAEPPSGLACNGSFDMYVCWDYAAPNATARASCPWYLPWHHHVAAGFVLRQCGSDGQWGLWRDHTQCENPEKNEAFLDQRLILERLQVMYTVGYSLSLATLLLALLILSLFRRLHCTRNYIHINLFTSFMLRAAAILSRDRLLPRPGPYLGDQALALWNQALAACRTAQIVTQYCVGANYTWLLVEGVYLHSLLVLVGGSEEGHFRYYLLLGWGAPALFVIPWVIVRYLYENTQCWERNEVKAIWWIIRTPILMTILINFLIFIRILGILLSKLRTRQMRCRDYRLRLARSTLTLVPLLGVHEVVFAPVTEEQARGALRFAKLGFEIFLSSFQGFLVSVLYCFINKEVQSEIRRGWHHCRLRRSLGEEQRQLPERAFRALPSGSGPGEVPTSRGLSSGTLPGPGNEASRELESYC
As to the kind of experiment: cell-based or functional assay.

Numbered stars: 1 amine (or outer) side, 2 acyl side, 3 side chain; on linkers, the order of the positions; unused ones are H or OH. Square brackets hold non-standard residues; d marks the D form. Primed or numbered codes have the meaning given here. Side chains are listed from the residue outwards. Ends that are not written are not given here. * marks the point of attachment. C20 diacid = O=C(O)CCCCCCCCCCCCCCCCCCC(=O)*; C18 diacid = O=C(O)CCCCCCCCCCCCCCCCC(=O)*; C16 diacid = O=C(O)CCCCCCCCCCCCCCC(=O)*; γGlu = O=C(O)[C@H](CCC(=O)[*:2])N[*:1]; Iva = CC[C@](C)(N)C(=O)O; PEG3′ = not defined here; Abu = CC[C@H](N)C(=O)O; Aib = CC(C)(N)C(=O)O

In turn, Y[Aib]EGTFISDYSIALDR[Aib]HQ[Aib]NFVNW[Iva]LAQRPSSGAPK([Abu-γGlu-C18 diacid])PS (ends and bridges not checked) [Compound No. 543] returned a GLP EC50 in assay [1] above 1000 nM. This molecule displayed a GIP EC50(pM) in assay [2] of 0.72 pM.
The molecule Y[Aib]EGTFISDYSIALDR[Aib]HQ[Aib]NFVNW[Iva]LAQRPSSK([Abu-γGlu-C18 diacid])APPPS (ends and bridges not checked) [Compound No. 540] came in with a GLP EC50 in assay [1] above 1000 nM. In assay [2], this molecule showed a GIP EC50(pM) of 3.01 pM.
Taken in the same sequence, the figures for Y[Aib]EGTFISDYSIALDR[Aib]HQ[Aib]NFVNW[Iva]LAQRK([γGlu-γGlu-C18 diacid])SSGAPPPS (ends and bridges not checked) [Compound No. 547] were above 1000 nM and 0.41 pM.
The like results for Y[Aib]EGTFISDYSIALDR[Aib]HQ[Aib]NFVNW[Iva]LAQRPSSGAPPPK([PEG3′-γGlu-C20 diacid]) (ends and bridges not checked) [Compound No. 535] were, in that order, above 1000 nM and 1.54 pM.
The like results for Y[Aib]EGTFISDYSIALDR[Aib]HQ[Aib]NFVNW[Iva]LAQRPSSGK([Abu-γGlu-C18 diacid])PPPS (ends and bridges not checked) [Compound No. 541] were, in that order, above 1000 nM and 0.73 pM.
Y[Aib]EGTFISDYSIALDR[Aib]HQ[Aib]NFVNW[Iva]LAQRK([Abu-γGlu-C18 diacid])SSGAPPPS (ends and bridges not checked) [Compound No. 537] returned a GLP EC50 in assay [1] above 1000 nM. The GIP EC50(pM) in assay [2] is 1.32 pM.
Taken in the same sequence, the figures for Y[Aib]EGTFISDYSIALDR[Aib]HQ[Aib]NFVNW[Iva]LAQRPSSGK([γGlu-γGlu-C18 diacid])PPPS (ends and bridges not checked) [Compound No. 551] were above 1000 nM and 0.6 pM.
The like results for Y[Aib]EGTFISDYSIALDR[Aib]HQ[Aib]NFVNW[Iva]LAQRPK([γGlu-γGlu-C18 diacid])SGAPPPS (ends and bridges not checked) [Compound No. 548] were, in that order, above 1000 nM and 0.81 pM.
Taken in the same sequence, the figures for Y[Aib]EGTFISDYSIALDR[Aib]HQ[Aib]NFVNW[Iva]LAQRPSSGAK([γGlu-γGlu-C18 diacid])PPS (ends and bridges not checked) [Compound No. 552] were above 1000 nM and 1.12 pM.
Regarding Y[Aib]EGTFISDYSIALDR[Aib]HQ[Aib]NFVNW[Iva]LAQRPSSGAPPPK([PEG3′-γGlu-C16 diacid]) (ends and bridges not checked) [Compound No. 533], the GLP EC50 in assay [1] was found to be 776 nM. Besides, the GIP EC50(pM) in assay [2] stood at 0.59 pM.
Taken in the same sequence, the figures for Y[Aib]EGTFISDYSIALDR[Aib]HQ[Aib]NFVNW[Iva]LAQRPSK([γGlu-γGlu-C18 diacid])GAPPPS (ends and bridges not checked) [Compound No. 549] were above 1000 nM and 0.85 pM.
Taken in the same sequence, the figures for Y[Aib]EGTFISDYSIALDR[Aib]HQ[Aib]NFVNW[Iva]LAQRPSSGAPPK([PEG3′-γGlu-C20 diacid])S (ends and bridges not checked) [Compound No. 532] were above 1000 nM and 2.05 pM.
In assay [1], Y[Aib]EGTFISDYSIALDR[Aib]HQ[Aib]NFVNW[Iva]LAQRPSSK([γGlu-γGlu-C18 diacid])APPPS (ends and bridges not checked) [Compound No. 550] showed a GLP EC50 above 1000 nM. The same molecule came in with a GIP EC50(pM) in assay [2] of 0.83 pM.
Taken in the same sequence, the figures for Y[Aib]EGTFISDYSIALDR[Aib]HQ[Aib]NFVNW[Iva]LAQRPSSGAPPK([Abu-γGlu-C18 diacid])S (ends and bridges not checked) [Compound No. 544] were above 1000 nM and 0.94 pM.
The like results for Y[Aib]EGTFISDYSIALDR[Aib]HQ[Aib]NFVNW[Iva]LAQRPSSGAPK([PEG3′-γGlu-C20 diacid])PS (ends and bridges not checked) [Compound No. 529] were, in that order, above 1000 nM and 1.3 pM.
The like results for Y[Aib]EGTFISDYSIALDR[Aib]HQ[Aib]NFVNW[Iva]LAQRPK([Abu-γGlu-C18 diacid])SGAPPPS (ends and bridges not checked) [Compound No. 538] were, in that order, above 1000 nM and 1.8 pM.
Molecule Y[Aib]EGTFISDYSIALDR[Aib]HQ[Aib]NFVNW[Iva]LAQRPSSGAPPK([PEG3′-γGlu-C16 diacid])S (ends and bridges not checked) [Compound No. 530] came in with a GLP EC50 in assay [1] above 1000 nM. For the same molecule, the GIP EC50(pM) in assay [2] was 0.36 pM.
For Y[Aib]EGTFISDYSIALDR[Aib]HQ[Aib]NFVNW[Iva]LAQRPSK([Abu-γGlu-C18 diacid])GAPPPS (ends and bridges not checked) [Compound No. 539], in assay [1], the GLP EC50 is above 1000 nM. For the same molecule, the GIP EC50(pM) in assay [2] stood at 2.66 pM.
The like results for Y[Aib]EGTFISDYSIALDR[Aib]HQ[Aib]NFVNW[Iva]LAQRPSSGAPK([PEG3′-γGlu-C16 diacid])PS (ends and bridges not checked) [Compound No. 527] were, in that order, 479 nM and 0.37 pM.
Taken in the same sequence, the figures for Y[Aib]EGTFISDYSIALDR[Aib]HQ[Aib]NFVNW[Iva]LAQRPSSGAPPPK([PEG3′-γGlu-C18 diacid]) (ends and bridges not checked) [Compound No. 534] were above 1000 nM and 0.81 pM.
Taken in the same sequence, the figures for Y[Aib]EGTFISDYSIALDR[Aib]HQ[Aib]NFVNW[Iva]LAQRPSSGAPPPK([Abu-γGlu-C18 diacid]) (ends and bridges not checked) [Compound No. 545] were above 1000 nM and 0.43 pM.
For the molecule Y[Aib]EGTFISDYSIALDR[Aib]HQ[Aib]NFVNW[Iva]LAQRPSSGAK([Abu-γGlu-C18 diacid])PPS (ends and bridges not checked) [Compound No. 542], the GLP EC50 in assay [1] is above 1000 nM. The GIP EC50(pM) in assay [2] worked out at 1.21 pM.
For the molecule Y[Aib]EGTFISDYSIALDR[Aib]HQ[Aib]NFVNW[Iva]LAQRPSSGAPK([PEG3′-γGlu-C18 diacid])PS (ends and bridges not checked) [Compound No. 528], the GLP EC50 in assay [1] was above 1000 nM. In assay [2], this molecule yielded a GIP EC50(pM) of 0.87 pM.
Taken in the same sequence, the figures for Y[Aib]EGTFISDYSIALDR[Aib]HQ[Aib]NFVNW[Iva]LAQRPSSGAK([PEG3′-γGlu-C18 diacid])PPS (ends and bridges not checked) [Compound No. 525] were above 1000 nM and 0.82 pM.
Taken in the same sequence, the figures for Y[Aib]EGTFISDYSIALDR[Aib]HQ[Aib]NFVNW[Iva]LAQRPSSGAK([PEG3′-γGlu-C20 diacid])PPS (ends and bridges not checked) [Compound No. 526] were above 1000 nM and 1.5 pM.
The like results for Y[Aib]EGTFISDYSIALDR[Aib]HQ[Aib]NFVNW[Iva]LAQRPSSGAPPK([PEG3′-γGlu-C18 diacid])S (ends and bridges not checked) [Compound No. 531] were, in that order, above 1000 nM and 1.02 pM.
